Assay results taken from patent publication US7189519B2, “Bead-based detection of ligand-GPCR-G protein complexes” (STC.UNM, priority 1998, dated 2007).

biological target: T1, FPR-αi2 (R-α) fusion protein (UniProt P04897+P21462); experiment: RGS activity assay on beads (FPR-αi2, fluorescent ligand, GTP, Gβγ beads); format: biochemical
T1 construct: expressed in transfected cells; U937 stated only for FPR
Procedure: FPR-αi2 (R-α) was used in the standard assembly assay with fluorescent ligand (see FIG. 3, complex C), and with the amounts of GTP and RGS shown in FIG. 7, using beads coated with Gβγ. Bead fluorescence was measured as previously described.
Standard LRG Assembly Assay. The standard 10 μl assay consisted of 2 μl of water or 10^−4M GTPγS, 6 μl of soluble receptor preparation with or without ligand, and 2 μl of beads prepared as above, with 0.7 pmol G protein used per assay, and an unknown fraction left on the beads in the proper orientation. For FPR and R-αi2 assemblies, L^F (fMLFK-FITC) was added in excess of receptor to ensure that essentially all the receptor was bound. For FPR-GFP assembly, 10^−6 M L (fMLFFGGK) was added to the receptor preparation to ensure that essentially all the receptor was bound. Each mixture was mixed by pipetting to ensure a uniform starting suspension of the beads in 96 V-well plates (Costar), and then mixed at low speed on a vortex mixer at 7° for two hours. The 10 μl assays were individually brought to 200 μl with 0.1% dodecyl maltoside in buffer A in 12×75 mm tubes for flow cytometric measurement of fluorescence of the beads. LRG assembly was defined as the difference between fluorescence without GTPγS and that with GTPγS. All determinations were done in duplicate.
RGS Activity Affects LR-αG Assemblies on Beads. As a second mechanistic problem, the role of GTP and RGS activity in regulating the assembly of βγ subunits with the receptor-Giα fusion protein was examined (FIG. 7; see also FIGS. 3, complex C and FIG. 4B). […] The data were consistent with the idea that RGS, by enhancing the cleavage of GTP, affected the GTP dose-response for the formation of the bead-based complex. The shift in the dose-response was consistent with the consumption of 10 μM or more GTP in 10 μl over 2 hours in the presence of R-α, RGS, and L. Calculating that 24 nM R-α (the total added) consumed 10 μM GTP equally in the first half hour, leaving 60 minutes for assembly on the bead, the turnover number was ˜14 min^−1 for the receptor-Giα fusion protein at 7° C.; if rates double for every 10° C. increase, this would imply about 110 min^−1 at 37° C. Calculating consumption over the entire time yields ˜5 and 40 min^−1, respectively.
The nucleotide sensitivity of the assembly of R-αi2 with βγ allowed the activity and specificity of RGS to be examined. […] This assembly format therefore has the potential for discriminating RGS antagonists. Elsewhere it is described how GTP increases access of soluble assemblies of R-αi2 to anti-αi2 antibody, consistent with the idea of Ay binding and release (Shi M, et al., submitted).

T1 sequence (P21462+P04897 fused): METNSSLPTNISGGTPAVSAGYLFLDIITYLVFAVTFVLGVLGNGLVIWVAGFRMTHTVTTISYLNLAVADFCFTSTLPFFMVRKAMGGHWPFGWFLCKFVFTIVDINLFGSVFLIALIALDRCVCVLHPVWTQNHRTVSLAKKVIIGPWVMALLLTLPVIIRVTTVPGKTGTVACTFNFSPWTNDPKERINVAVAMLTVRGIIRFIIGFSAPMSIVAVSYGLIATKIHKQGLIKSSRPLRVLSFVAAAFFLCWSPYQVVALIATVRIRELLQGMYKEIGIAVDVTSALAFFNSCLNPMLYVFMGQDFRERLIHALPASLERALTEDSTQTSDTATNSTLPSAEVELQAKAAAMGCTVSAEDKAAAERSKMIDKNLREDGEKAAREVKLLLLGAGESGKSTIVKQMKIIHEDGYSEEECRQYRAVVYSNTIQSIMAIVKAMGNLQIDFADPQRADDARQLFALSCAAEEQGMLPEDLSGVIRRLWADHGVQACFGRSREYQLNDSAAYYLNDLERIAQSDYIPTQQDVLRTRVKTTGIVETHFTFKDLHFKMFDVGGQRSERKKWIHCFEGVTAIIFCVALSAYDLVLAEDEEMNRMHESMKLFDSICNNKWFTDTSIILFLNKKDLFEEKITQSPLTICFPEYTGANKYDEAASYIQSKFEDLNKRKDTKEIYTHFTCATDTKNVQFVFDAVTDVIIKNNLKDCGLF

Row | Molecule | GTP consumption in the presence of LR-α
1 | RGS4: regulator of G protein signaling protein (protein, UniProt P49798 1-205, looked up) Regulator of G-protein …: MCKGLAGLPASCLRSAKDMKHRLGFLLQKSDSCEHNSSHNKKDKVVICQRVSQEEVKKWAESLENLISHECGLAAFKAFLKSEYSEENIDFWISCEEYKKIKSPSKLSPKAKKIYNEFISVQATKEVNLDSCTREETSRNMLEPTITCFDEAQKKIFNLMEKDSYRRFLKSRFYLDLVNPSSCGAEKQKGAKSSADCASLVPQCA | appeared to consume GTP
2 | RGS7: regulator of G protein signaling protein (protein, UniProt P49802 1-495, looked up) Regulator of G-protein …: MAQGNNYGQTSNGVADESPNMLVYRKMEDVIARMQDEKNGIPIRTVKSFLSKIPSVFSGSDIVQWLIKNLTIEDPVEALHLGTLMAAHGYFFPISDHVLTLKDDGTFYRFQTPYFWPSNCWEPENTDYAVYLCKRTMQNKARLELADYEAESLARLQRAFARKWEFIFMQAEAQAKVDKKRDKIERKILDSQERAFWDVHRPVPGCVNTTEVDIKKSSRMRNPHKTRKSVYGLQNDIRSHSPTHTPTPETKPPTEDELQQQIKYWQIQLDRHRLKMSKVADSLLSYTEQYLEYDPFLLPPDPSNPWLSDDTTFWELEASKEPSQQRVKRWGFGMDEALKDPVGREQFLKFLESEFSSENLRFWLAVEDLKKRPIKEVPSRVQEIWQEFLAPGAPSAINLDSKSYDKTTQNVKEPGRYTFEDAQEHIYKLMKSDSYPRFIRSSAYQELLQAKKKSGNSMDRRTSFEKFAQNVGRNIPIFPCHKNCTPTLRASTNLL | appeared to consume GTP
3 | RGS8: regulator of G protein signaling protein (protein, UniProt P57771 1-180, looked up) Regulator of G-protein …: MAALLMPRRNKGMRTRLGCLSHKSDSCSDFTAILPDKPNRALKRLSTEEATRWADSFDVLLSHKYGVAAFRAFLKTEFSEENLEFWLACEEFKKTRSTAKLVSKAHRIFEEFVDVQAPREVNIDFQTREATRKNLQEPSLTCFDQAQGKVHSLMEKDSYPRFLRSKMYLDLLSQSQRRLS | appeared to consume GTP
4 | RGS2: regulator of G protein signaling protein (protein, UniProt P41220 1-211, looked up) Regulator of G-protein …: MQSAMFLAVQHDCRPMDKSAGSGHKSEEKREKMKRTLLKDWKTRLSYFLQNSSTPGKPKTGKKSKQQAFIKPSPEEAQLWSEAFDELLASKYGLAAFRAFLKSEFCEENIEFWLACEDFKKTKSPQKLSSKARKIYTDFIEKEAPKEINIDFQTKTLIAQNIQEATSGCFTTAQKRVYSLMENNSYPRFLESEFYQDLCKKPQITTEPHAT | did not
